The target of this assay is ΔRSC3. In words: ELISA, antigen coated, IgG1. (In general: In an ELISA, binding on a coated surface is turned into a signal by an enzyme label.)

With VRC-PG04 (antibody), the fold less binding than to RSC3 worked out at 100 fold. As for VRC-PG04b (antibody), the fold less binding than to RSC3 was 100 fold.

The values above are taken from patent US10273291.
